The values that follow are results of earlier work, collected in PMC3720604.

pKd: −log10 of the molar value.

The data set addresses CK2β (Homo sapiens) (UniProt P67870).
Chain of UniProt P67870 (P67870 2-215): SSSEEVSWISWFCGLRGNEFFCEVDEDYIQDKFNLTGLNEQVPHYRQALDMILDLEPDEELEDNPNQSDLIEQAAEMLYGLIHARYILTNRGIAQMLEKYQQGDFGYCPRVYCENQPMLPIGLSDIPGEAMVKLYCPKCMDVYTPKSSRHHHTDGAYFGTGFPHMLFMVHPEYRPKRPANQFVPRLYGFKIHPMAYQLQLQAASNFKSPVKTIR

What is called pKd is the negative decadic logarithm of the Kd, by convention in mol/L. Take CK2α′ (from UniProt P19784): the negative-log Kd (pKd) was 7.34.
